These results are taken from patent US20200113821A1.

The assay deals with c-Kit (CD117; mast/stem cell growth factor receptor) on CD117+ bone marrow cells of β-globin/GFP transgenic mice (mouse) (UniProt P05532). The experiment in a line: cell-based or functional assay.
Chain of UniProt P05532 (P05532 25-979): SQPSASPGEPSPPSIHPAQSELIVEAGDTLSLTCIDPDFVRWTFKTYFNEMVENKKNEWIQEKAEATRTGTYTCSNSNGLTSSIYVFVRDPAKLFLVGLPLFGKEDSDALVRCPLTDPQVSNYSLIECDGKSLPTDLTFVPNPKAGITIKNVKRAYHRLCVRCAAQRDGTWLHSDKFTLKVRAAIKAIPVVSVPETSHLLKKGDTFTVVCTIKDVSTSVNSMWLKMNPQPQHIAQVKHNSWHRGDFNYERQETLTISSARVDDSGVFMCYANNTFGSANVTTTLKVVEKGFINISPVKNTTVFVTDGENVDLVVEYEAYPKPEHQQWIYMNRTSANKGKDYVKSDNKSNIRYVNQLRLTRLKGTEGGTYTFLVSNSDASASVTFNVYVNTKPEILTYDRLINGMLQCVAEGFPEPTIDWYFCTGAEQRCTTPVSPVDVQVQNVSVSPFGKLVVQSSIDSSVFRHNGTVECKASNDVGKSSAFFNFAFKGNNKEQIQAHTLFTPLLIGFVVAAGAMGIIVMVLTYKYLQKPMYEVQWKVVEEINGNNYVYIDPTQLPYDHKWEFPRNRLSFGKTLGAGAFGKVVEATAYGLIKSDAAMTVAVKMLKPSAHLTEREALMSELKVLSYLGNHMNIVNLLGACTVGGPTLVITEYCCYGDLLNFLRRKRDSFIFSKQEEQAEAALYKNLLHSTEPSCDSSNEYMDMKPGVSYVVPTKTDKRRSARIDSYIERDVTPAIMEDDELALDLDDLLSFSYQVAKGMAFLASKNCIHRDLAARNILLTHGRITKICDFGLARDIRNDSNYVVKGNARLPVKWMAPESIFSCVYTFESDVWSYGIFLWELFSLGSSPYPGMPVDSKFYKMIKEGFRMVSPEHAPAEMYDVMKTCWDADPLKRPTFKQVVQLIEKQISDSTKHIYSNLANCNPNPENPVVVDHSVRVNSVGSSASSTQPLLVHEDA

As for “Recombinant murine SCF (stem cell factor), catalog #250-03, PeproTech (from UniProt P20826 26-189) (ligand)”, the HDR activity (recombination between reporter gene constructs) in CD117+ cells stood at 2 fold and the γtcPNA4/donor DNA-mediated gene editing (% GFP expressing CD117+ cells, flow cytometry) worked out at 15%.
